The DeepSol protein solubility set

Assay: soluble on expression in E. coli; label from the status in PepcDB or PDB records

Soluble on expression in E. coli, not soluble:
MVGSLLPSHATEFEKRLADACDFHQDVDGAVLGISRAKLITRPPRFLPWLIEEYGLGELTPYVPNLYDLIDQGLAWQRLRGSVAAIELGLKWLELSARFTPAWSGRAWWNSFQLDFDQLPEQSSLEAIEAIVDLSKSFRSDFRRSTYGYDVEATEGDMSHLDDSMLDFESGVRLTARDTLFSFGRTTQIKHTLTKEEGKLIGNWIDDVDEELSWNQIDYPWELANFPWCSVKKHERDILIAKWFQNRPLYLALRDLDNTLIGYRRCYAVQPVEQAVEGVYSHCGNRFNPSPTGTMLFLAARTDFEDVENKQAASVPLLVHGSLVEQTPLGKLWLGADELRGGVEILKTPINIPLRADVREQFKILLRF
MVHIRLSFITFSLILFLVVDMVKIPKSHPRYWSLLYREKIIEGMEKGITAKAGLIAHGRGEAFDYLIGEKTIPPAETAMRAAIAKLLLAKHPVISVNGNVAALVPKETVELAKVLNAKLEINLFYRTEERVKKIAEVLYENGADEVLGINPTKRIPGLESERGKVDENGIWKADVILVPLEDGDRTEALCRMGKFVITVDLNPLSRSARMADITIVDNIVRAYPRMIELAKEMKSLPKEDLEKIVATYDNSKVLSEVLIHIRDRLTKLAEGGIWKKEKLEHHHHHH
MVIDFNRLNPGSTPATTGRTGSTAAGRPDATGADKAGQAATSAPKSGESVQISETAQNMQKVTDQLQTLPVVDNDKVARIKQAIADGTYQVDSERVASKLLDFESQR

Soluble on expression in E. coli, soluble:
MVGGSLSPAFTIDEATSYINAVKEAFGADQPAKYREFLDIMLDLRANRVDLATVVPRMRELLKDHVNLLLRFNAFLPAEAKETFHDVRSYIYSLKESFRDEPAKYAQFLEILNDYSARRVDAPSAVARMTELMKDHRNLVLGFSVLLSTGDTKTTPLEAEPDNNKRIRVANFISKLKARFQGNDGHVYESFLEILTMYQQGNKSVNDLYQEVVALLQGHEDLVMEFSNVFKRTTGPSGSKSARDR
MVGLADVAVLYSGGKDSNYALYWAIKNRFSVKFLVTMVSENEESYMYHTINANLTDLQARALGIPLVKGFTQGEKEKEVEDLKRVLSGLKIQGIVAGALASKYQRKRIEKVAKELGLEVYTPAWGRDAKEYMRELLNLGFKIMVVGVSAYGLDESWLGRILDESALEELITLNEKYKVHVAGEGGEFETFVLDMPLFKYKIVVDKAKKVWEPCTSSGKLIIEEAHLESKLEHHHHHH
MVIELKNEKVTVQFKEFGGALSSIKDQDGIEYLWQGNPAYWSSQAPVLFPICGSLRNDKGIYTSKKHSHRYGSIPRHGLVRKKNFRFEQLGKDSVVFTITPDKEMLMQYPYHFELKIIYTLKHTTIRTEYQVINKEKESIMPYFIGGHPGLNCPLFAGDRYEDYYLEFEKEETCTVPKSFPDTGLLDLQDRKIFLKGQKYLDLDYSLFTHDAITLDNLQSRSVSLRSKNHGGGLRLDFADFPYLILWSTANKSPFIALEPWSGLSTAVDESDYFEEKRNVSFVEPGQFDRNYFDITVLLEHHHHHH
MVILLQFYKEENFKKTEIGEIPEDWEVRELKDILEVIRNGLTAKQNKDKIGYPITRIETISDSKIDITKLGYVEDIKQEDIAKYRLIIGDILFSHINSEEHIGKVAIYEGKPEFLLHGMNLLLLRPNKNKIEPYYLLYLLRHFKQKNIFKYIAKRAVNQSSINQTQLKHLKIPLPPLEEQKQIAKILSDFDNLIGTINKQIEVLNKAKKGMMKKLFTKGVFEHKSFKKSEIGEIPEDWEVVELGNEKYFKIIMGQSPPSSSYNKEGEGVPFLQGKAEFGNIYPNPVLYTNKPLKVVDDEDILISVRAPVGDVNIAPFKLCIGRGLAGIKSNKEKVDNFFVFYYLSYIKPKIEYLGGGAVFKAITKKDLESIKIPLPPLEEQKAIAKRLKAIDDLIEIKRKEKEQIEKAKKKIMNLLLTGKIRVKT
MVIVINYKTYNESIGNRGLEIAKIAEKVSEESGITIGVAPQFVDLRMIVENVNIPVYAQHIDNINPGSHTGHILAEAIKDCGCKGTLINHSEKRMLLADIEAVINKCKNLGLETIVCTNNINTSKAVAALSPDCIAVEPPELIGTGIPVSKANPEVVEGTVRAVKEINKDVKVLCGAGISKGEDVKAALDLGAEGVLLASGVVKAKNVEEAIRELIKFI
